# No end group written: not given here.
# T1: Cad-11 37-mer peptide linked to BSA (encompasses the Cad-11 immunogen) (human)
# T1 sequence (peptide, linked to BSA): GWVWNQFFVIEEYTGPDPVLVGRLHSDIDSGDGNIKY
# T2: human Cadherin-11 on cells (Cad-11-expressing 431-D-11 cells; human fibroblast-like synoviocytes) (human) (UniProt P55287)
# T2 sequence: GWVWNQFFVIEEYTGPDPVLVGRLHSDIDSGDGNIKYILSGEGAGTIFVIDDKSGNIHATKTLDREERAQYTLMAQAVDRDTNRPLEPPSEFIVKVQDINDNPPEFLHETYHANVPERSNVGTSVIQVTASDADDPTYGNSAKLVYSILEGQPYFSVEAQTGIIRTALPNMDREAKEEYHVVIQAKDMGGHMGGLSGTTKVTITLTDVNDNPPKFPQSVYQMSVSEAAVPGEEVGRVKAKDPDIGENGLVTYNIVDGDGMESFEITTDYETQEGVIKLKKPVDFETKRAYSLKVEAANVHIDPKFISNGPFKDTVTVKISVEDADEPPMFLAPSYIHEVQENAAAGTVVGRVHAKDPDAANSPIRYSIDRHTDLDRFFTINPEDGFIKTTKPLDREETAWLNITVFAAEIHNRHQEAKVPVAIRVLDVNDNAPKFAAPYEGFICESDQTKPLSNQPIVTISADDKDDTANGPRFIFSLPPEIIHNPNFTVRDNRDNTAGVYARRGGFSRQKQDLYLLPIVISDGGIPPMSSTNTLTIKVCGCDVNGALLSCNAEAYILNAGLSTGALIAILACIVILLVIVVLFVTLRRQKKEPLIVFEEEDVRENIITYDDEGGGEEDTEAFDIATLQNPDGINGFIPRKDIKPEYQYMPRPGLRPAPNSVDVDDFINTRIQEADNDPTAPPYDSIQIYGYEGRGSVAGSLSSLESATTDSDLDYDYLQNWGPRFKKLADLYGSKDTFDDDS
# Legend:
# [1] = target: T1, Cad-11 37-mer peptide linked to BSA (encompasses the Cad-11 immunogen) (human); test: ELISA, BSA-coupled 37-mer cadherin peptide coated at 500 ng/ml, A450
# [2] = target: T1, Cad-11 37-mer peptide linked to BSA (encompasses the Cad-11 immunogen) (human); test: ELISA on BSA-coupled 37-mer peptides, 500 ng/ml coat
# [3] = target: T2, human Cadherin-11 on cells (Cad-11-expressing 431-D-11 cells; human fibroblast-like synoviocytes) (human); test: cell-based or functional assay
# [4] = target: SDP051 humanized anti-Cad-11 EC1 antibody (Vκ1/VH5); test: flow cytometry blocking assay: peptide titrated with SDP 051 at 0.5 ug/ml on Cad-11 expressing 431D cells; blocked: binding of SDP051 to cell-surface Cad-11; MFI
EC50 (read off the curve) [1],Binder,further results
0.07 µg/mL,"SDP131 humanized anti-Cad-11 EC1 antibody (Vκ3/VH3) (antibody, IgG4, V domains shown) VH: EVQLVQSGAEVKKPGASVKISCKASGYSFTGYFMNWVRQAPGQGLEWIGRINPYTGDTFYNQKFKGRATLTVDKSTSTAYMELSSLRSEDTAVYYCGRLGSRYWYFDVWGQGTTVTVSS VL: DVVMTQTPLSSPVTLGQPASISCRSSQSIIHSNGNTYLEWYLQKPGQSPQLLIYKVSNRFSGVPDRFSGSGSGTDFTLKISRVEAEDVGVYYCFQGSHVPWTFGQGTKLEIK",
0.05 µg/mL,"SDP121 humanized anti-Cad-11 EC1 antibody (Vκ3/VH2) (antibody, IgG4, V domains shown) VH: EVQLVQSGAEVKKPGASVKISCKASGYSFTGYFMNWVKQAPGQGLEWIGRINPYTGDTFYNQKFKGRATLTVDKSTSTAYMELSSLRSEDTAVYYCGRLGSRYWYFDVWGQGTTVTVSS VL: DVVMTQTPLSSPVTLGQPASISCRSSQSIIHSNGNTYLEWYLQKPGQSPQLLIYKVSNRFSGVPDRFSGSGSGTDFTLKISRVEAEDVGVYYCFQGSHVPWTFGQGTKLEIK",
0.06 µg/mL,"SDP151 humanized anti-Cad-11 EC1 antibody (Vκ3/VH5) (antibody, IgG4, V domains shown) VH: EVQLVQSGAEVKKPGASVKVSCKASGYSFTGYFMNWVRQAPGQGLEWIGRINPYTGDTFYNQKFKGRVTITVDKSTSTAYMELSSLRSEDTAVYYCGRLGSRYWYFDVWGQGTTVTVSS VL: DVVMTQTPLSSPVTLGQPASISCRSSQSIIHSNGNTYLEWYLQKPGQSPQLLIYKVSNRFSGVPDRFSGSGSGTDFTLKISRVEAEDVGVYYCFQGSHVPWTFGQGTKLEIK",
0.06 µg/mL,"SDP141 humanized anti-Cad-11 EC1 antibody (Vκ3/VH4) (antibody, IgG4, V domains shown) VH: EVQLVQSGAEVKKPGASVKVSCKASGYSFTGYFMNWVRQAPGQGLEWIGRINPYTGDTFYNQKFKGRATITVDKSTSTAYMELSSLRSEDTAVYYCGRLGSRYWYFDVWGQGTTVTVSS VL: DVVMTQTPLSSPVTLGQPASISCRSSQSIIHSNGNTYLEWYLQKPGQSPQLLIYKVSNRFSGVPDRFSGSGSGTDFTLKISRVEAEDVGVYYCFQGSHVPWTFGQGTKLEIK",

# More lines, now with the values behind:
Binder,EC50 (read off the curve) [1],further results
"SDP081 humanized anti-Cad-11 EC1 antibody (Vκ2/VH3) (antibody, IgG4, V domains shown) VH: EVQLVQSGAEVKKPGASVKISCKASGYSFTGYFMNWVRQAPGQGLEWIGRINPYTGDTFYNQKFKGRATLTVDKSTSTAYMELSSLRSEDTAVYYCGRLGSRYWYFDVWGQGTTVTVSS VL: DVLMTQTPLSSPVTLGQPASISCRSSQSIIHSNGNTYLEWYLQKPGQSPQLLIYKVSNRFSGVPDRFSGSGSGTDFTLKISRVEAEDVGVYYCFQGSHVPWTFGQGTKLEIK",0.07 µg/mL,
"SDP061 humanized anti-Cad-11 EC1 antibody (Vκ2/VH1) (antibody, IgG4, V domains shown) VH: EVQLVQSGPELKKPGASVKISCKASGYSFTGYFMNWVKQAHGQGLEWIGRINPYTGDTFYNQKFKGRATLTVDKSSSTAYMELVSLSSEDSAVYYCGRLGSRYWYFDVWGQGTTVTVSS VL: DVLMTQTPLSSPVTLGQPASISCRSSQSIIHSNGNTYLEWYLQKPGQSPQLLIYKVSNRFSGVPDRFSGSGSGTDFTLKISRVEAEDVGVYYCFQGSHVPWTFGQGTKLEIK",0.05 µg/mL,fold greater binding to the Cad-11 antigen than to the related antigens from the other cadherins [2]: > 20 fold
"SDP041 humanized anti-Cad-11 EC1 antibody (Vκ1/VH4) (antibody, IgG4, V domains shown) VH: EVQLVQSGAEVKKPGASVKVSCKASGYSFTGYFMNWVRQAPGQGLEWIGRINPYTGDTFYNQKFKGRATITVDKSTSTAYMELSSLRSEDTAVYYCGRLGSRYWYFDVWGQGTTVTVSS VL: DVLMTQTPLSSPVTLGQPASISCRSSQSIIHSNGNTYLEWYLQKPGQSPQLLIYKVSNRFSGVPDRFTGSGSGTDFTLKISRVEAEDVGVYYCFQGSHVPWTFGQGTKLEIK",0.06 µg/mL,
"SDP071 humanized anti-Cad-11 EC1 antibody (Vκ2/VH2) (antibody, IgG4, V domains shown) VH: EVQLVQSGAEVKKPGASVKISCKASGYSFTGYFMNWVKQAPGQGLEWIGRINPYTGDTFYNQKFKGRATLTVDKSTSTAYMELSSLRSEDTAVYYCGRLGSRYWYFDVWGQGTTVTVSS VL: DVLMTQTPLSSPVTLGQPASISCRSSQSIIHSNGNTYLEWYLQKPGQSPQLLIYKVSNRFSGVPDRFSGSGSGTDFTLKISRVEAEDVGVYYCFQGSHVPWTFGQGTKLEIK",,fold greater binding to the Cad-11 antigen than to the related antigens from the other cadherins [2]: > 20 fold
"SDP021 humanized anti-Cad-11 EC1 antibody (Vκ1/VH2) (antibody, IgG4, V domains shown) VH: EVQLVQSGAEVKKPGASVKISCKASGYSFTGYFMNWVKQAPGQGLEWIGRINPYTGDTFYNQKFKGRATLTVDKSTSTAYMELSSLRSEDTAVYYCGRLGSRYWYFDVWGQGTTVTVSS VL: DVLMTQTPLSSPVTLGQPASISCRSSQSIIHSNGNTYLEWYLQKPGQSPQLLIYKVSNRFSGVPDRFTGSGSGTDFTLKISRVEAEDVGVYYCFQGSHVPWTFGQGTKLEIK",0.06 µg/mL,
"SDP111 humanized anti-Cad-11 EC1 antibody (Vκ3/VH1) (antibody, IgG4, V domains shown) VH: EVQLVQSGPELKKPGASVKISCKASGYSFTGYFMNWVKQAHGQGLEWIGRINPYTGDTFYNQKFKGRATLTVDKSSSTAYMELVSLSSEDSAVYYCGRLGSRYWYFDVWGQGTTVTVSS VL: DVVMTQTPLSSPVTLGQPASISCRSSQSIIHSNGNTYLEWYLQKPGQSPQLLIYKVSNRFSGVPDRFSGSGSGTDFTLKISRVEAEDVGVYYCFQGSHVPWTFGQGTKLEIK",0.07 µg/mL,
"SDP031 humanized anti-Cad-11 EC1 antibody (Vκ1/VH3) (antibody, IgG4, V domains shown) VH: EVQLVQSGAEVKKPGASVKISCKASGYSFTGYFMNWVRQAPGQGLEWIGRINPYTGDTFYNQKFKGRATLTVDKSTSTAYMELSSLRSEDTAVYYCGRLGSRYWYFDVWGQGTTVTVSS VL: DVLMTQTPLSSPVTLGQPASISCRSSQSIIHSNGNTYLEWYLQKPGQSPQLLIYKVSNRFSGVPDRFTGSGSGTDFTLKISRVEAEDVGVYYCFQGSHVPWTFGQGTKLEIK",0.06 µg/mL,fold greater binding to the Cad-11 antigen than to the related antigens from the other cadherins [2]: > 20 fold
"SDP091 humanized anti-Cad-11 EC1 antibody (Vκ2/VH4) (antibody, IgG4, V domains shown) VH: EVQLVQSGAEVKKPGASVKVSCKASGYSFTGYFMNWVRQAPGQGLEWIGRINPYTGDTFYNQKFKGRATITVDKSTSTAYMELSSLRSEDTAVYYCGRLGSRYWYFDVWGQGTTVTVSS VL: DVLMTQTPLSSPVTLGQPASISCRSSQSIIHSNGNTYLEWYLQKPGQSPQLLIYKVSNRFSGVPDRFSGSGSGTDFTLKISRVEAEDVGVYYCFQGSHVPWTFGQGTKLEIK",0.07 µg/mL,
"SDP011 humanized anti-Cad-11 EC1 antibody (Vκ1/VH1) (antibody, IgG4, V domains shown) VH: EVQLVQSGPELKKPGASVKISCKASGYSFTGYFMNWVKQAHGQGLEWIGRINPYTGDTFYNQKFKGRATLTVDKSSSTAYMELVSLSSEDSAVYYCGRLGSRYWYFDVWGQGTTVTVSS VL: DVLMTQTPLSSPVTLGQPASISCRSSQSIIHSNGNTYLEWYLQKPGQSPQLLIYKVSNRFSGVPDRFTGSGSGTDFTLKISRVEAEDVGVYYCFQGSHVPWTFGQGTKLEIK",0.07 µg/mL,
human Cad-11-EC1-hIgG2-Fc1 fusion protein (Fc fusion) FAPERRGHLRPSFHGHHEKGKEGQVLQRSKRGWVWNQFFVIEEYTGPDPVLVGRLHSDIDSGDGNIKYILSGEGAGTIFVIDDKSGNIHATKTLDREERAQYTLMAQAVDRDTNRPLEPPSEFIVKVQRSVECPPCPAPPVAGPSVFLFPPKPKDTLMISRTPEVTCVVVDVSHEDPEVQFNWYVDGMEVHNAKTKPREEQFNSTFRVVSVLTVVHQDWLNGKEYKCKVSNKGLPAPIEKTISKTKGQPREPQVYTLPPSREEMTKNQVSLTCLVKGFYPSDIAVEWESNGQPENNYKTTPPMLDSDGSFFLYSKLTVDKSRWQQGNVFSCSVMHEALHNHYTQKSLSLSPGKVPRLA,,Cad-11 mediated cell aggregation [3]: 3 µg/mL
GWVWNQFFVIEEYTGPDPVLVGRLHSDIDSGDGNIKY (also: linked to BSA) [Cad-11 37-mer peptide linked to BSA (encompasses the Cad-11 immunogen)],,IC50 (read off the curve) [4]: 0.2 µg/mL
"Cad-11-EC1-5-Fc fusion protein (5 extracellular domains of Cad-11 fused to the human IgG2 hinge, CH2 and CH3 domains) (Fc fusion, not shown: a dimerising Fc or GST) GWVWNQFFVIEEYTGPDPVLVGRLHSDIDSGDGNIKYILSGEGAGTIFVIDDKSGNIHATKTLDREERAQYTLMAQAVDRDTNRPLEPPSEFIVKVQDINDNPPEFLHETYHANVPERSNVGTSVIQVTASDADDPTYGNSAKLVYSILEGQPYFSVEAQTGIIRTALPNMDREAKEEYHVVIQAKDMGGHMGGLSGTTKVTITLTDVNDNPPKFPQSVYQMSVSEAAVPGEEVGRVKAKDPDIGENGLVTYNIVDGDGMESFEITTDYETQEGVIKLKKPVDFETKRAYSLKVEAANVHIDPKFISNGPFKDTVTVKISVEDADEPPMFLAPSYIHEVQENAAAGTVVGRVHAKDPDAANSPIRYSIDRHTDLDRFFTINPEDGFIKTTKPLDREETAWLNITVFAAEIHNRHQEAKVPVAIRVLDVNDNAPKFAAPYEGFICESDQTKPLSNQPIVTISADDKDDTANGPRFIFSLPPEIIHNPNFTVRDNRDNTAGVYARRGGFSRQKQDLYLLPIVISDGGIPPMSSTNTLTIKVCGCDVNGALLSCNAEAYILNAGLST",,Cad-11 mediated cell aggregation [3]: 100 µg/mL

# Reference: US20150132305A1
